Source: the supplement of paper PMC10065799, “High-throughput profiling of sequence recognition by tyrosine kinases and SH2 domains using bacterial peptide display” (eLife, 2023)

Key:
AncSZ = assay: phosphorylation enrichment, bacterial display (enrichment ratio); higher = better substrate or ligand; peptides without Tyr show the background
EPHB1 = EPHB1 (UniProt P54762); assay: as above
EPHB2 = EPHB2 (UniProt P29323); assay: as above
FGFR1 = FGFR1 (UniProt P11362); assay: as above
FGFR3 = FGFR3 (UniProt P22607); assay: as above
Fer (mouse) = assay: as above
Fes = Fes (UniProt P07332); assay: as above
Fyn = Fyn (UniProt P06241); assay: as above
Hck = Hck (UniProt P08631); assay: as above
Jak2 = Jak2 (UniProt O60674); assay: as above
MERTK = MERTK (UniProt Q12866); assay: as above
c-Abl (mouse) = assay: as above
c-Src = assay: as above
Grb2 SH2 = Grb2 SH2 (UniProt P62993); assay: SH2 binding enrichment of the phosphorylated peptide, bacterial display (enrichment ratio); higher = better substrate or ligand; peptides without Tyr show the background
SHP2-C SH2 = assay: as above
c-Src SH2 = assay: as above
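Throughout, for SH2 binding enrichment of the phosphorylated peptide, bacterial display: peptide library displayed on the E. coli surface as eCPX fusions, selected cells deep-sequenced, score is each peptide's frequency after selection divided by its frequency in the input.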
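Throughout, for phosphorylation enrichment, bacterial display: 11-residue human phosphosite peptides and single-mutation variants displayed on the E. coli surface, counted by deep sequencing, each peptide's frequency after selection divided by its frequency in the unselected input library; frequency after pTyr selection over input frequency; kinase dosed for 20-30% of maximal phosphorylation in three min.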

Chain of Hck (P08631 whole entry, looked up): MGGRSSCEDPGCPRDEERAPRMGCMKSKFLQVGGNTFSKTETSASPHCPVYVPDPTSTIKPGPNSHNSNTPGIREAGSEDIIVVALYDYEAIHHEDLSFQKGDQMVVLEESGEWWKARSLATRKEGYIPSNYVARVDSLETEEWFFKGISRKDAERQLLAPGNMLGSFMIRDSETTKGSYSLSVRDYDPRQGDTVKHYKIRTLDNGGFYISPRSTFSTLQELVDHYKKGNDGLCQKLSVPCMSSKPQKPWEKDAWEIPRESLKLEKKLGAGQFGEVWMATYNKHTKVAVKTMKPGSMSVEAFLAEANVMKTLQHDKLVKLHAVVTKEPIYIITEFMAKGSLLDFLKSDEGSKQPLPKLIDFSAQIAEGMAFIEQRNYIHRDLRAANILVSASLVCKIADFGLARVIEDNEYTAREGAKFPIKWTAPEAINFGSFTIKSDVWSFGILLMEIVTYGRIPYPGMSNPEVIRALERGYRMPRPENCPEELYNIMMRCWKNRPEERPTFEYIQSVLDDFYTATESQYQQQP
Chain of Fyn (P06241 whole entry, looked up): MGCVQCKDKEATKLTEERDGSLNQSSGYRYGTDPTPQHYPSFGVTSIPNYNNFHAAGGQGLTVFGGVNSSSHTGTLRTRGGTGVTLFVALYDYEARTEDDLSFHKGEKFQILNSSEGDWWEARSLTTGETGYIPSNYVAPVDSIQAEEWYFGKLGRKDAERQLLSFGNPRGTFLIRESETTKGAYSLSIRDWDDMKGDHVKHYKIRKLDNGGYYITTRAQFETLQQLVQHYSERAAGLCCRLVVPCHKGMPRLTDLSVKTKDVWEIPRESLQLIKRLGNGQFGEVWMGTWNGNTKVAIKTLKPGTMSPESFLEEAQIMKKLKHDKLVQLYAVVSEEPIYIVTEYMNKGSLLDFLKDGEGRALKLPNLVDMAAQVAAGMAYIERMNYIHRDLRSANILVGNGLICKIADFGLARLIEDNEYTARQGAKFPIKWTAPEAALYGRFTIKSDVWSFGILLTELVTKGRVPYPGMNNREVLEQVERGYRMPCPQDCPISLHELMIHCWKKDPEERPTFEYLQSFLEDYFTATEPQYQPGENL
Chain of Jak2 (O60674 whole entry, looked up): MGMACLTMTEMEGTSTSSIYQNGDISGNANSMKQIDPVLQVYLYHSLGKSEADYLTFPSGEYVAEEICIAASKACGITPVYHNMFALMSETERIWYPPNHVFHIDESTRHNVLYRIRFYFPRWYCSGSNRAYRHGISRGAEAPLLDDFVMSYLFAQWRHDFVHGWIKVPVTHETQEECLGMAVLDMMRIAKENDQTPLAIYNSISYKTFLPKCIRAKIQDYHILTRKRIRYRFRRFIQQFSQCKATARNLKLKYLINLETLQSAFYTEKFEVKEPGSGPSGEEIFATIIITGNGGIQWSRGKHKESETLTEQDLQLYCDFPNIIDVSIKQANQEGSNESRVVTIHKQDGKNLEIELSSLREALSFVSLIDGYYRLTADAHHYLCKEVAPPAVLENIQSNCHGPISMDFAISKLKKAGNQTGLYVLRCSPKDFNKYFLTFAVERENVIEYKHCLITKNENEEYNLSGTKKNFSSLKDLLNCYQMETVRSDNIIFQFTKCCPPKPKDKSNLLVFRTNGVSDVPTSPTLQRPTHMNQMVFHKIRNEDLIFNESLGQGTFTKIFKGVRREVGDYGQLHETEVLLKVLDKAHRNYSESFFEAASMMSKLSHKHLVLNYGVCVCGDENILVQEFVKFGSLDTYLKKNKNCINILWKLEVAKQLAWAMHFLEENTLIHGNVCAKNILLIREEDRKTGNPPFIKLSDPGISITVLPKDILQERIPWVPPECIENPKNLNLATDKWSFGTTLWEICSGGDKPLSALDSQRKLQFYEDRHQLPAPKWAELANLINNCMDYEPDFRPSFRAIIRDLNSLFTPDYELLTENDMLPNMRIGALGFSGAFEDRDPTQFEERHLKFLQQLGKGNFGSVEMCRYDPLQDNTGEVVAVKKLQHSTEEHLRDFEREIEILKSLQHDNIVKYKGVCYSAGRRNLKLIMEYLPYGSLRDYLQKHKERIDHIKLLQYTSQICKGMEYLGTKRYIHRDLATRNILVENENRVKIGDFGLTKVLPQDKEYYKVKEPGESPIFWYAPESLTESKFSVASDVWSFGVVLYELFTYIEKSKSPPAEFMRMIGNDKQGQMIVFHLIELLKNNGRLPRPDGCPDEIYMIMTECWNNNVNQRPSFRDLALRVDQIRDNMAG
Chain of FGFR1 (P11362 whole entry, looked up): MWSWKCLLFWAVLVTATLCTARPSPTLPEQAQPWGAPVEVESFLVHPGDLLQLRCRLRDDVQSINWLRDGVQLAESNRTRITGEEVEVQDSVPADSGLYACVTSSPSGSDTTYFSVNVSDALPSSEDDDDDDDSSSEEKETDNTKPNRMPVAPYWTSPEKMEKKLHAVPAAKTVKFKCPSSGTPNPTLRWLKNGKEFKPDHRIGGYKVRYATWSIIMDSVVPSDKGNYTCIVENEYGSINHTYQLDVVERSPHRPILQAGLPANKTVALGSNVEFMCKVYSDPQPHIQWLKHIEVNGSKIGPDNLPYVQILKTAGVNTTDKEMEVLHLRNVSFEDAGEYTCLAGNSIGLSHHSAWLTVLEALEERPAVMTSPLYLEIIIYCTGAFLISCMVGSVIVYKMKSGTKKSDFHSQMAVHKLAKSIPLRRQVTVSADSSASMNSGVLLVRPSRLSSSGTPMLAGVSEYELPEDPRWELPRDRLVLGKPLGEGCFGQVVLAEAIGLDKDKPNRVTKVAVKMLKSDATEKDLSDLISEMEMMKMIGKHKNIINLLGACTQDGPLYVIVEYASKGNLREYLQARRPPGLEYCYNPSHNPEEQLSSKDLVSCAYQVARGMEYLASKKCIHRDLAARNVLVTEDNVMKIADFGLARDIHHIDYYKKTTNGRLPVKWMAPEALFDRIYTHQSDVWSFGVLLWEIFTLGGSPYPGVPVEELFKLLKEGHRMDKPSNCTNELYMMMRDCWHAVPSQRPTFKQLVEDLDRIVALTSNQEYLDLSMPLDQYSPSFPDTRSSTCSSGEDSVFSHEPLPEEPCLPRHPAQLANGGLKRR
Chain of EPHB2 (P29323 whole entry, looked up): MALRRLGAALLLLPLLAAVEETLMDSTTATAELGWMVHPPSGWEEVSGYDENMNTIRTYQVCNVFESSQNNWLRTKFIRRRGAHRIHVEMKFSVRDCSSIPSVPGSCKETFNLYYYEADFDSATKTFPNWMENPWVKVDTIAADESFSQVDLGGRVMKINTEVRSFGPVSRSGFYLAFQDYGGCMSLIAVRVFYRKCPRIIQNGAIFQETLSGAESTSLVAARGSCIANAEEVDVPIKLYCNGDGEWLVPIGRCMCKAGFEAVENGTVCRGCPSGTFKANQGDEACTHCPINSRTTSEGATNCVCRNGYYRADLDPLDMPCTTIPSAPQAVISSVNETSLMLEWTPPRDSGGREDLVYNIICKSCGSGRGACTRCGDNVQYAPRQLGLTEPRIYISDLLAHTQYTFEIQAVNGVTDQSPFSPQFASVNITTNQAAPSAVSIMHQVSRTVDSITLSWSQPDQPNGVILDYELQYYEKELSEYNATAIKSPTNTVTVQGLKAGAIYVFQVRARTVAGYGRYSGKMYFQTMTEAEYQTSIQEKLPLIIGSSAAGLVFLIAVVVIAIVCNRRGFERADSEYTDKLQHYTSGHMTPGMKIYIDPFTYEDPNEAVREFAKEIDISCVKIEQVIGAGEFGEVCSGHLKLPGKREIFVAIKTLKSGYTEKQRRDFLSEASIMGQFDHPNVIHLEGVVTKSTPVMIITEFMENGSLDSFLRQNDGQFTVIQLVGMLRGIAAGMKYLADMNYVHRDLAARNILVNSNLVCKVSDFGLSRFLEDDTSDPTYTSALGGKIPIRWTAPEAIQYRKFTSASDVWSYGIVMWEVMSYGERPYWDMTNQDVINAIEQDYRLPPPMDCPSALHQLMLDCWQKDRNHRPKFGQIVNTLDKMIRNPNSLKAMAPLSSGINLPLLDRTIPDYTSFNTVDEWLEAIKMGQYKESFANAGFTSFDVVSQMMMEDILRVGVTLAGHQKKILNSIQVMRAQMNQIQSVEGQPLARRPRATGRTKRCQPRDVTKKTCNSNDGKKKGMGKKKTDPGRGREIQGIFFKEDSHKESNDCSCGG
Chain of Fes (P07332 whole entry, looked up): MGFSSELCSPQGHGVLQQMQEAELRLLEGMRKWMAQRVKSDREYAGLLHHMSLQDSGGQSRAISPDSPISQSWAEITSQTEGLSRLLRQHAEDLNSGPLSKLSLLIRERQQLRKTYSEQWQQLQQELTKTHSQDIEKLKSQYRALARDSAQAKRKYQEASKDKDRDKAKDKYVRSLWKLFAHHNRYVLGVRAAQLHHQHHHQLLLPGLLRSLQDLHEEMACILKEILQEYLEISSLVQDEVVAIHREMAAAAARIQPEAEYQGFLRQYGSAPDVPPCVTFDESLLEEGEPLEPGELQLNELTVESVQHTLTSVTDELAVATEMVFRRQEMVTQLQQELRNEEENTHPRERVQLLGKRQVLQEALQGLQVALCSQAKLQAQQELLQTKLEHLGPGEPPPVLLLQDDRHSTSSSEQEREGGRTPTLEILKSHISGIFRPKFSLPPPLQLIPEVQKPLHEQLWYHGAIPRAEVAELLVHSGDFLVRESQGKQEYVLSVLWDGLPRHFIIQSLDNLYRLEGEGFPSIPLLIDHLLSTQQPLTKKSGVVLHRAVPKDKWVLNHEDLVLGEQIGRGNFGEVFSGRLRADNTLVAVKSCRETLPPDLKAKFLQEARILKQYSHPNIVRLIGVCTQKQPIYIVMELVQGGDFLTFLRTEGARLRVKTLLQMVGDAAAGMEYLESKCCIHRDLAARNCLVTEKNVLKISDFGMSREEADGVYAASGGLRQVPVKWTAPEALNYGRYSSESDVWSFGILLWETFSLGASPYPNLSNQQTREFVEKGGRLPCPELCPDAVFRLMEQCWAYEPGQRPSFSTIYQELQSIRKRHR

| Sequence | SH2 binding enrichment (Grb2 SH2) | SH2 binding enrichment (SHP2-C SH2) | SH2 binding enrichment (c-Src SH2) | phosphorylation enrichment (AncSZ) | phosphorylation enrichment (EPHB1) | phosphorylation enrichment (EPHB2) | phosphorylation enrichment (FGFR1) | phosphorylation enrichment (FGFR3) | phosphorylation enrichment (Fer (mouse)) | phosphorylation enrichment (Fes) | phosphorylation enrichment (Fyn) | phosphorylation enrichment (Hck) | phosphorylation enrichment (Jak2) | phosphorylation enrichment (MERTK) | phosphorylation enrichment (c-Abl (mouse)) | phosphorylation enrichment (c-Src) |
| --- | --- | --- | --- | --- | --- | --- | --- | --- | --- | --- | --- | --- | --- | --- | --- | --- |
| GEFFRYLAEVA [YWHAG_Y133_D129E_YF] | 0.924 | 0.673 | 0.454 | 0.873 | 0.46 | 0.501 | 0.498 | 0.767 | 0.51 | 1.17 | 0.575 | 0.431 | 1.02 | 0.438 | 0.747 | 0.442 |
| QLRPGYFPIPV [BAG3_Y93_I94F] | 0.697 | 0.906 | 0.475 | 0.6 | 0.448 | 0.585 | 0.593 | 0.56 | 0.42 | 0.679 | 0.536 | 0.466 | 0.981 | 0.531 | 0.53 | 0.423 |
| PNATLYKMSSI [SERPINA7_Y40] | 0.85 | 0.375 | 0.395 | 0.592 | 0.456 | 0.325 | 0.406 | 0.495 | 0.397 | 0.55 | 0.35 | 0.401 | 0.358 | 0.361 | 0.472 | 0.349 |
| DLKFHYDNTAG [KDR_Y1214_P1210L] | 0.867 | 0.598 | 0.552 | 0.804 | 0.515 | 0.504 | 0.517 | 0.661 | 0.466 | 1 | 0.484 | 0.462 | 0.889 | 0.415 | 0.663 | 0.426 |
| SSSGAYGGGFG [KRT19_Y61_YF] | 0.724 | 0.517 | 0.427 | 0.553 | 0.383 | 0.378 | 0.412 | 0.464 | 0.396 | 0.689 | 0.434 | 0.415 | 0.595 | 0.396 | 0.539 | 0.452 |
| VDEERYDIEGK [TNNI3_Y112_A116G] | 1.02 | 0.98 | 0.683 | 1.44 | 0.737 | 0.74 | 0.539 | 0.754 | 0.561 | 1.3 | 0.506 | 0.623 | 1.3 | 0.491 | 0.896 | 0.509 |
| DIPIRYSIMGV [CDH4_Y205_T208M] | 0.894 | 2.51 | 1.31 | 1.13 | 0.473 | 0.603 | 0.481 | 0.695 | 0.421 | 1.14 | 0.455 | 0.352 | 1 | 0.523 | 0.723 | 0.448 |
| RNVFFYSFLLK [PTEN_Y178_Y174N_YF] | 1.22 | 1.02 | 0.907 | 1.29 | 0.861 | 0.738 | 0.586 | 1.31 | 0.697 | 1.72 | 0.656 | 0.565 | 1.59 | 0.757 | 1.23 | 0.508 |
| TYGQVYKGPHV [TNIK_Y40_R43P] | 0.702 | 0.755 | 0.579 | 0.68 | 0.586 | 0.633 | 0.534 | 0.468 | 0.398 | 0.751 | 12.4 | 7.7 | 0.826 | 0.618 | 0.666 | 9.04 |

Second part, led by results:

| SH2 binding enrichment (Grb2 SH2) | SH2 binding enrichment (SHP2-C SH2) | SH2 binding enrichment (c-Src SH2) | Sequence | phosphorylation enrichment (AncSZ) | phosphorylation enrichment (EPHB1) | phosphorylation enrichment (EPHB2) | phosphorylation enrichment (FGFR1) | phosphorylation enrichment (FGFR3) | phosphorylation enrichment (Fer (mouse)) | phosphorylation enrichment (Fes) | phosphorylation enrichment (Fyn) | phosphorylation enrichment (Hck) | phosphorylation enrichment (Jak2) | phosphorylation enrichment (MERTK) | phosphorylation enrichment (c-Abl (mouse)) | phosphorylation enrichment (c-Src) |
| --- | --- | --- | --- | --- | --- | --- | --- | --- | --- | --- | --- | --- | --- | --- | --- | --- |
| 0.869 | 0.759 | 0.481 | PPNSPYMGSSP [KCNT1_Y740_I741M] | 1.01 | 0.497 | 0.536 | 0.632 | 0.818 | 0.612 | 0.868 | 0.546 | 0.521 | 0.825 | 0.468 | 0.782 | 0.59 |
| 1.04 | 0.995 | 3.41 | RLLREYQELMN [KRT75_Y434] | 0.759 | 0.691 | 0.613 | 0.785 | 0.583 | 0.465 | 0.817 | 0.746 | 0.458 | 1.11 | 0.376 | 0.67 | 0.421 |
| 1.07 | 1.19 | 0.972 | KPRKLYTIKKP [BRD2_Y715_P714L] | 0.608 | 0.374 | 0.444 | 0.328 | 0.427 | 0.413 | 0.496 | 0.375 | 0.452 | 0.532 | 0.408 | 0.456 | 0.442 |
| 0.818 | 0.648 | 0.511 | WQQQSYLDYGI [CTNNB1_Y30_S33Y] | 1.11 | 0.808 | 1.07 | 0.91 | 0.827 | 0.453 | 1.03 | 0.604 | 0.615 | 0.842 | 0.426 | 0.711 | 0.743 |
| 0.902 | 0.907 | 0.985 | HKANEYYPVVL [ADAMTS18_Y764] | 2.86 | 1.47 | 1.45 | 23.2 | 15.7 | 2.6 | 1.22 | 0.956 | 1.95 | 9.18 | 1.13 | 2.49 | 1.65 |
